Assay results reported in patent US20240336683A1 (published 2024).

T1: full-length human Siglec15 with C-terminal flag and Myc tags on HEK293 cells (human, UniProt Q6ZMC9 20-328)
T1 construct: whole, on cells; also called Siglec15/HEK293; HEK293-Siglec 15; not shown: C-terminal flag and Myc tags from pCMV6-Entry vector
T1 sequence (looked up): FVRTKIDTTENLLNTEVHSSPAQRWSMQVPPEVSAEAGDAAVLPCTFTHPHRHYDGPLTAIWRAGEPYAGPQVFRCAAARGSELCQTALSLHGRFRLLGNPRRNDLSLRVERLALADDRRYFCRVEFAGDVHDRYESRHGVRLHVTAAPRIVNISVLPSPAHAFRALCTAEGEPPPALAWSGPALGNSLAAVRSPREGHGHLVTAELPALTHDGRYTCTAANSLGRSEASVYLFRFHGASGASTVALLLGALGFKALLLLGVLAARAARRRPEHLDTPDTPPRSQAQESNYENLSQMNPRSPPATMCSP

T2: human Siglec 15-HIS tagged recombinant protein (human, UniProt Q6ZMC9 20-263)
T2 construct: Recombinant soluble protein; also called rhSiglec15 His; human Siglec15-HIS tagged protein; not shown: HIS tag
T2 sequence (looked up): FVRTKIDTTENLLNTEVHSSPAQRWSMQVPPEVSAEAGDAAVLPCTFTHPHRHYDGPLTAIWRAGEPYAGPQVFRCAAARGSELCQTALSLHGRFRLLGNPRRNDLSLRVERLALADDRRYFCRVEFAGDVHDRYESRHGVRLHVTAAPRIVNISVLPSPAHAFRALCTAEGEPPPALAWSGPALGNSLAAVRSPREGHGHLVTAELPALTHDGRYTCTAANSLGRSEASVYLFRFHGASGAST

T3: rcynoSiglec15 His (cyno, UniProt A0A2K5UY47 20-262)
T3 construct: not shown: His tag
T3 sequence: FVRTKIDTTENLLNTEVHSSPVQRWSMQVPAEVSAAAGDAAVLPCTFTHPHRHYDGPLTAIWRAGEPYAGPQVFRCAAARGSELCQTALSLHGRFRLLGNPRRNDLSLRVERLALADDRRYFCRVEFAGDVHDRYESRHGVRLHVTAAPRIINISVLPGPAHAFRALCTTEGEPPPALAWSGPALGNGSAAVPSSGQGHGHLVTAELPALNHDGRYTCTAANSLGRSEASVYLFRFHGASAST

T4: rmouseSiglec15 His (mouse, UniProt A7E1W8 20-262)
T4 sequence: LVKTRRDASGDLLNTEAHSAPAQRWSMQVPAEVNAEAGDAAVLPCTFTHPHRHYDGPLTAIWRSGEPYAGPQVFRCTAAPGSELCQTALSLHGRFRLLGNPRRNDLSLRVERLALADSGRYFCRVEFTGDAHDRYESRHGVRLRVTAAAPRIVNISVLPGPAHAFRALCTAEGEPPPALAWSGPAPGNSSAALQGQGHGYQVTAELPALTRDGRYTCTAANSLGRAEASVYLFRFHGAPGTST

B1: 2019EP47-A02 IgG (antibody, V domains shown)
VH: EVQLVQSGGGVVQPGRSLRLSCAASGFTFSSYAMHWVRQAPGKGLEWVAVISYDGSNKYYADSVKGRFTISRDNSKNTLYLQMNSLRAEDTAVYYCARSRYSSSLRRYYGMDVWGQGTTVTVSS
VL: AIQLTQSPSSLSASVGDRVTITCQATHDIANYLNWYQQKPGKAPKLLIYAASNLETGVPSRFSGSGSGTDFTFAISSLQPEDIAVYYCQQYDNLPLTFGGGTKVEIK
notes: IgG form expressed in ExpiHEK293-F cells; detected with anti-hFc
B2: 2020EP032-B03 IgG (antibody, V domains shown)
VH: QVQLQQWGAGLLKPSETLSLTCAVYGGSFSGYYWSWIRQPPGKGLEWIGEINHSGSTNYNPSLKSRVTISVDTSKNQFSLKLSSVTAADTAVYYCARGPLRKYYDFWSGSRNYYYYGMDVWGQGTTVTVSS
VL: QPVLTQDPAVSVALGQTVRITCQGDSLRSNYASWYQLKPGQAPVLVIYDKNNRPSGIPDRFSGSNSGNTASLTIAGAQAEDEADYYCTSRDSSGTVFGGGTKLTVL
notes: IgG form expressed in ExpiHEK293-F cells; detected with anti-hFc; also called 2020EP32-B03
B3: 2020EP032-H11 IgG (antibody, V domains shown)
VH: EVQLVESGGGLVKPGGSLRLSCAASGFTFSSYSMNWVRQAPGKGLEWVSSISSSSSYIYYADSVKGRFTISRDNAKNSLYLQMNSLRAEDTAVYYCARDYRGYSGQNYYGMDVWGQGTTVTVSS
VL: QSALTQPPSVSAAPRQKVTISCSGSSSNIGNNDVSWYQQLPGTVPKLLIYDNNKRPSGIPDRFSGSKSGTSASLGITGLQTGDEADYYCGVWDSSLSGYVFGTGTKVTVL
notes: IgG form expressed in ExpiHEK293-F cells; detected with anti-hFc; also called 2020EP32-H11; H11 mAb
B4: 2019EP47-A10 IgG (antibody, V domains shown)
VH: QMQLVQSGGGVVQPGRSLRLSCAASGFTFSSYGMHWVRQAPGKGLEWVAVISYDGSNKYYADSVKDRFTISRDNSKNTLYLQMNSLRAEDTAVYYCAKDIVGDSGSYPIYYYYGMDVWGQGTTVTVSS
VL: SQSALTQPHSVSESPGKTVTISCTRSSGSIASNYVQWYQQRPGSAPSTVIYEDNQRPSGVPDRFSGSVDISSNSASLTISGLQTEDEADYYCQSYDNDNMVFGGGTKLTVL
notes: as for B1

Tests used:
[1] = target: T1, full-length human Siglec15 with …; assay: FACS on Siglec15/HEK293 cells, IgG, anti-hFc Alexa fluor 647
[2] = target: T2, human Siglec 15-HIS tagged recombinant …; assay: ELISA; His-tagged Siglec15 coated, IgG titrated, anti-hFc HRP
Protocol: (§1) An ELISA assay was developed to determine the EC50 of anti-Siglec15 IgG antibodies. Briefly, a 384 well plate was immobilized with human Siglec 15-HIS tagged recombinant protein at a final concentration of 2 ug/mL in 1×PBS in total volume of 25 uL per well. The plate was incubated overnight at 4° C. followed by blocking with 80 uL of superblock per well for 1 hour. Titration of purified anti-Siglec15 IgG was performed, starting at 200 nM 2-fold serial dilution, then 25 uL was added to the human Siglec15 immobilized wells and incubated for 1 hour with shaking. The Siglec15 binding was detected by adding 25 uL of anti-hFc HRP diluted at 1:5000 in 1×PBST. In between each step, the plate was washed 3 times with 1×PBST in a plate washer. The plate was then developed with 20 ul of TMB substrate for 5 mins and stopped by adding 20 ul of 2N sulfuric acid. The plate was read at OD450 nm Biotek plate reader and then plotted in Prism 8.1 software. Similar binding experiments were done for mouse Siglec15 and cyno Siglec15 to check the cross activity of the IgG antibodies to those two species.

[3] = target: T2, human Siglec 15-HIS tagged recombinant …; assay: SPR Biacore T200; IgG captured on Protein A chip, Siglec15-HIS as analyte
Protocol: Kinetic analysis of anti-Siglec15 IgG was assessed by SPR technology with Biacore T200. The assay was run with Biacore T200 control software version 2.0. For each cycle, 1 ug/mL of anti-Siglec15 IgG was captured for 60 seconds at flow rate of 10 ul/min on flow cell 2 in 1× HBSP buffer on Protein A sensor chip. 2-fold serial human Siglec15-HIS tagged protein was injected onto both reference flow cell 1 and anti-Siglec15 IgG captured flow cell 2 for 150 seconds at flow rate of 30 ul/mins followed by wash for 300 seconds. The flow cells were then regenerated with Glycine pH2 for 60 seconds at flow rate of 30 ul/mins. 8 concentration points from 100-0 nM were assayed per anti-Siglec15 IgG in a 96 well plate. The kinetics of Anti-Siglec15 IgG binding to Siglec 15 protein was analyzed with Biacore T200 evaluation software version 3.0. The specific binding response unit was derived from subtraction of binding to reference flow cell 1 from antibody captured flow cell 2.

rcynoSiglec15 His = target: T3, rcynoSiglec15 His; assay: ELISA; His-tagged Siglec15 coated, IgG titrated, anti-hFc HRP
Protocol: as §1

rmouseSiglec15 His = target: T4, rmouseSiglec15 His; assay: as above
Protocol: as §1

| Binder | EC50 [1] [nM] | EC50 [2] [nM] | Kd [3] [nM] | koff [3] [s⁻¹] | EC50 (rcynoSiglec15 His) [nM] | EC50 (rmouseSiglec15 His) [nM] |
| --- | --- | --- | --- | --- | --- | --- |
| B1 | 0.35 | 0.0289 | 2.4 | 0.000311 | – | – |
| B2 | 1.92 | 0.527 | – | – | 1.21 | 0.248 |
| B3 | 0.022 | 0.0228 | – | – | 0.0258 | 0.0105 |
| B4 | – | 0.119 | 3.8 | 0.000368 | 0.171 | 0.109 |
